# According to IntAct's records for PubMed 35512704:
# B1: Mothers against decapentaplegic homolog 4 (Homo sapiens), Q13485 (parent)
# chain: MDNMSITNTPTSNDACLSIVHSLMCHRQGGESETFAKRAIESLVKKLKEKKDELDSLITAITTNGAHPSKCVTIQRTLDGRLQVAGRKGFPHVIYARLWRWPDLHKNELKHVKYCQYAFDLKCDSVCVNPYHYERVVSPGIDLSGLTLQSNAPSSMMVKDEYVHDFEGQPSLSTEGHSIQTIQHPPSNRASTETYSTPALLAPSESNATSTANFPNIPVASTSQPASILGGSHSEGLLQIASGPQPGQQQNGFTGQPATYHHNSTTTWTGSRTAPYTPNLPHHQNGHLQHHPPMPPHPGHYWPVHNELAFQPPISNHPAPEYWCSIAYFEMDVQVGETFKVPSSCPIVTVDGYVDPSGGDRFCLGQLSNVHRTEAIERARLHIGKGVQLECKGEGDVWVRCLSDHAVFVQSYYLDREAGRAPGDAVHKIYPSAYIKVFDLRQCHRQMQQQAATAQAAAAAQAAAVAGNIPGPGSVGGIAPAISLSAAAGIGVDDLRRLCILRMSFVKGWGPDYPRQSIKETPCWIEIHLHRALQLLDEVLHTMPIADPQPLD
# partner: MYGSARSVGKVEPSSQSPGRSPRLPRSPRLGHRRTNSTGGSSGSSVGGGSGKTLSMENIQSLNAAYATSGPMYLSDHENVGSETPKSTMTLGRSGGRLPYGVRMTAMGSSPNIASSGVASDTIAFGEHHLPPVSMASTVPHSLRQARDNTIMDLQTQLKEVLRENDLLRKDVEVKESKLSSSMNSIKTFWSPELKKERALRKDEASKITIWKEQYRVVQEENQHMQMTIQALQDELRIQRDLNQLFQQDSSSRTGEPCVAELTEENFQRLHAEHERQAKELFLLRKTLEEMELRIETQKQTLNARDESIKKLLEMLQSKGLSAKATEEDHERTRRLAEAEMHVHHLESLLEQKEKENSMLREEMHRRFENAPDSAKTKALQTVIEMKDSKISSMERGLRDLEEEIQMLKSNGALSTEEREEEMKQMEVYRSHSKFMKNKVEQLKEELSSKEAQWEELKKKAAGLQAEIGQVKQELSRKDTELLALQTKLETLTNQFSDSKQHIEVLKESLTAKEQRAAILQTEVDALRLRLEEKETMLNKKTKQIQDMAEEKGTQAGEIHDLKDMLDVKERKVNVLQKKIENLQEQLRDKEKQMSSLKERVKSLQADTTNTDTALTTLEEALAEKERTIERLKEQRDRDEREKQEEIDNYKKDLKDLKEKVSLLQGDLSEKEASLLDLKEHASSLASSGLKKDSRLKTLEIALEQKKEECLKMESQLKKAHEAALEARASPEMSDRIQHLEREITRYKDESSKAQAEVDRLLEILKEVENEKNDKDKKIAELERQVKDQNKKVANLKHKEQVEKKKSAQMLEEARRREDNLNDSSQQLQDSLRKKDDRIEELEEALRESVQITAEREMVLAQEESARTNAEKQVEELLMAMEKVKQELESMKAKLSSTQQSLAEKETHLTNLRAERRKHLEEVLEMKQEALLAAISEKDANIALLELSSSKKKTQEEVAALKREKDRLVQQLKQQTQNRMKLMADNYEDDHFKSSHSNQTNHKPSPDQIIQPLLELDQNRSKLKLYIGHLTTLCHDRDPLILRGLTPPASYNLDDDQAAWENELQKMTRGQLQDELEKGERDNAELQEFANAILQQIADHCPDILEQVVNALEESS
# B2: Mothers against decapentaplegic homolog 4 (Homo sapiens), Q13485 (parent)
# chain: B1 chain
# partner: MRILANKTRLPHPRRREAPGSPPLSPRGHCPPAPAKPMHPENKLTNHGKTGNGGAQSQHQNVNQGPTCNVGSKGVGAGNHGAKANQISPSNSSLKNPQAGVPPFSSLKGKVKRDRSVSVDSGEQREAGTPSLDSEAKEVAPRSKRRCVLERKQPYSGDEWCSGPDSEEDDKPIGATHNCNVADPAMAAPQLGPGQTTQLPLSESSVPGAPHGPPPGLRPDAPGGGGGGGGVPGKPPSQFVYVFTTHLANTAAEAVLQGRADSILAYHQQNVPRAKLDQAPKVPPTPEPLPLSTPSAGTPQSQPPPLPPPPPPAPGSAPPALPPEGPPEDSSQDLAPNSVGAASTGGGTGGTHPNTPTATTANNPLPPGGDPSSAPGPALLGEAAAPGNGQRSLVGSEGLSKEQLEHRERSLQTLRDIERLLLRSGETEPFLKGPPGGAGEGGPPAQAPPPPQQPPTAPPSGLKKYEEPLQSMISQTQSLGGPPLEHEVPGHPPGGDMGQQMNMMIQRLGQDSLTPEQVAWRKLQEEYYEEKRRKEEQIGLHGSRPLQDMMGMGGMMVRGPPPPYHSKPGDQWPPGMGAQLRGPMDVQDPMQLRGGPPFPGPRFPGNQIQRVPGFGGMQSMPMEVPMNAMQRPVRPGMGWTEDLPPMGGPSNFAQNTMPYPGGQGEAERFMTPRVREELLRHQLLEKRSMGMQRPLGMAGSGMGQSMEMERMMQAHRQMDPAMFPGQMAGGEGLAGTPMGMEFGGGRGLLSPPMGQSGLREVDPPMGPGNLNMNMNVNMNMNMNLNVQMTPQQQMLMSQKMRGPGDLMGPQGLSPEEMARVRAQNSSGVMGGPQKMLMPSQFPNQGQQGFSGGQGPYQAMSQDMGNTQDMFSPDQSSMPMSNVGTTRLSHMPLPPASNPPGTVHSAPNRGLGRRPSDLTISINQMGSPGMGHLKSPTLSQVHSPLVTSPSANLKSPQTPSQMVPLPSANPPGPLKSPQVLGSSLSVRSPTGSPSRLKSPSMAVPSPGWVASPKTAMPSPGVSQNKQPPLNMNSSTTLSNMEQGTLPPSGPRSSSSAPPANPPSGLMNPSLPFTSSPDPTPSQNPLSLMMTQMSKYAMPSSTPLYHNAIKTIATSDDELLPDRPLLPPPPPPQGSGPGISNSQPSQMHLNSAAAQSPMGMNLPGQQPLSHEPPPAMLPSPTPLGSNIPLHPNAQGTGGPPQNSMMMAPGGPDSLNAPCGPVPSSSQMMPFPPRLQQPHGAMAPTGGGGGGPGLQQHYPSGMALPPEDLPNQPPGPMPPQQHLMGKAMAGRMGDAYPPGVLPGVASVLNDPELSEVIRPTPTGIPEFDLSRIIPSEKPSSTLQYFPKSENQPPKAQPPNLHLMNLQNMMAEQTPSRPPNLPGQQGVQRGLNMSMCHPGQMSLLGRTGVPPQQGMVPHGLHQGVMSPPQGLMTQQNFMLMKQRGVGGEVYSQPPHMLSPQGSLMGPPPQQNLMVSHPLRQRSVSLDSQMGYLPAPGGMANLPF
# B3: Mothers against decapentaplegic homolog 4 (Homo sapiens), Q13485 (parent)
# chain: B1 chain
# partner: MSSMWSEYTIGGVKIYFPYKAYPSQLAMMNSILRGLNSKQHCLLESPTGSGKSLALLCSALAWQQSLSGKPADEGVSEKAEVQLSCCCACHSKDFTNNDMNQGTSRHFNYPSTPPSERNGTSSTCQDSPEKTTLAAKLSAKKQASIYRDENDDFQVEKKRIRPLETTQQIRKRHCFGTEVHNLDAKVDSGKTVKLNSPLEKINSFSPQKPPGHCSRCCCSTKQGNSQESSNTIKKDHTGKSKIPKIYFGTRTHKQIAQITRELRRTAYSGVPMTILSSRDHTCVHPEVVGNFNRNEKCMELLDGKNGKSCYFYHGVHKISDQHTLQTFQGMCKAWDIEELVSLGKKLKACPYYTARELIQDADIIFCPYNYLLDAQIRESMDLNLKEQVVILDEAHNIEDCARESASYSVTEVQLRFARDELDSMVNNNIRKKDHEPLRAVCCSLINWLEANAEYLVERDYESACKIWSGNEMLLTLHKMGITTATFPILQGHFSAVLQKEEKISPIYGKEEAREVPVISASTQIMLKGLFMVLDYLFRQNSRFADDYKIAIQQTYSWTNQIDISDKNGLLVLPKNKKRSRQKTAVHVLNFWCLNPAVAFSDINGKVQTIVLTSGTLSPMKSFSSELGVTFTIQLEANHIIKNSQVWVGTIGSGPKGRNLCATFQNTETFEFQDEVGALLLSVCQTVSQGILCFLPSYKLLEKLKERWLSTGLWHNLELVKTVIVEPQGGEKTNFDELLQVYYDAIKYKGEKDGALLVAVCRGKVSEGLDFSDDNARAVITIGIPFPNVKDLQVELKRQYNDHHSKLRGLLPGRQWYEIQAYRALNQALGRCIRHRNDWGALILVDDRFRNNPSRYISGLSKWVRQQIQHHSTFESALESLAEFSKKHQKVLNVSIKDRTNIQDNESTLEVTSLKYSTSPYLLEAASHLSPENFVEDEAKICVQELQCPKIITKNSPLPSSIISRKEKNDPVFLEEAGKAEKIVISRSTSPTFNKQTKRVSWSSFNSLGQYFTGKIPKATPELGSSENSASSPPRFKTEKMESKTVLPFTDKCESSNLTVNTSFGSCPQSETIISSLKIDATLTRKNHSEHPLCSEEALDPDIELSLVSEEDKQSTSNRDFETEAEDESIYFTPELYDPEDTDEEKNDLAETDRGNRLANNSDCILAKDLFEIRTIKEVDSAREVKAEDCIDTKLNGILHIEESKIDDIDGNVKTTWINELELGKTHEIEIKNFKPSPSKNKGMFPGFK
# B4: Mothers against decapentaplegic homolog 4 (Homo sapiens), Q13485 (parent)
# chain: B1 chain
# partner: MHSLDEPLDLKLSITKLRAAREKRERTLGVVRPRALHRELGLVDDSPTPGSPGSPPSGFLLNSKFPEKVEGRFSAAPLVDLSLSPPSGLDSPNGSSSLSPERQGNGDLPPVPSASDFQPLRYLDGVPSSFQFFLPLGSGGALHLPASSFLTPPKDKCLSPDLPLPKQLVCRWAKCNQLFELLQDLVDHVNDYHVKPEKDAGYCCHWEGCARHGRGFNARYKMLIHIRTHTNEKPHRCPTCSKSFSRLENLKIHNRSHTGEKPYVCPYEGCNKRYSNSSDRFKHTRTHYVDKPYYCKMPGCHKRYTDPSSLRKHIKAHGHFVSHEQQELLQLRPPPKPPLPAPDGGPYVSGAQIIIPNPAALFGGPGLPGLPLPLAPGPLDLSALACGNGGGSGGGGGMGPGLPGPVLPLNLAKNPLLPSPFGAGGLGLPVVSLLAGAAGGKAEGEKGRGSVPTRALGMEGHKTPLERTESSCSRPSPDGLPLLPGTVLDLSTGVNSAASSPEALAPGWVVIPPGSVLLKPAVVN
# Variants of: B1
# Details: with rb6i2_human ERC1, Q8IUD2
row,Variant,effect of a mutation on the interaction
1,G386D,with no effect

# Variants of: B1
# Details: with rb6i2_human ERC1, Q8IUD2
# Remark: another data set of the same source
row,Variant,effect of a mutation on the interaction
1,R361C,with no effect

# Variants of: B1
# Details: with rb6i2_human ERC1, Q8IUD2
# Remark: another data set of the same source
row,Variant,effect of a mutation on the interaction
1,R361H,with no effect

# Variants of: B1
# Details: with rb6i2_human ERC1, Q8IUD2
# Remark: another data set of the same source
row,Variant,effect of a mutation on the interaction
1,D351H,with no effect

# Variants of: B2
# Details: with bcl9l_human BCL9L
row,Variant,effect of a mutation on the interaction
1,D351H,with no effect

# Variants of: B2
# Details: with bcl9l_human BCL9L
# Remark: another data set of the same source
row,Variant,effect of a mutation on the interaction
1,R361H,with no effect

# Variants of: B2
# Details: with bcl9l_human BCL9L
# Remark: another data set of the same source
row,Variant,effect of a mutation on the interaction
1,R361C,with no effect

# Variants of: B2
# Details: with bcl9l_human BCL9L
# Remark: another data set of the same source
row,Variant,effect of a mutation on the interaction
1,G386D,with no effect

# Variants of: B3
# Details: with fancj_human BRIP1, Q9BX63
row,Variant,effect of a mutation on the interaction
1,G386D,with no effect

# Variants of: B3
# Details: with fancj_human BRIP1, Q9BX63
# Remark: another data set of the same source
row,Variant,effect of a mutation on the interaction
1,D351H,with no effect

# Variants of: B4
# Details: with glis2_human GLIS2, Q9BZE0
row,Variant,effect of a mutation on the interaction
1,D351H,with no effect

# Variants of: B4
# Details: with glis2_human GLIS2, Q9BZE0
# Remark: another data set of the same source
row,Variant,effect of a mutation on the interaction
1,G386D,with no effect
